Assay results as given in US9574185B2, “Cold-adapted protease derived from Pseudoalteromonas arctica PAMC 21717 and uses thereof” (KOREA INSTITUTE OF OCEAN SCIENCE & TECHNOLOGY, priority 2014, dated 2017).

Key:
W-Pro21717 [1] = assay: Activity and stability of W-Pro21717 in the presence of metal ions and surfactants; format: biochemical, Pseudoalteromonas arctica PAMC 21717; settings: 1 mM, on ice for 1 hour
Procedure: In order to analyze the influence of metal ions and detergents, W-[…] was allowed to react with a standard buffer containing 1 mM BaCl2, CuSO4, MgSO4, CaCl2, ZnSO4, FePO4, KCl, NaCl, […], sodium linear alkylbenzene sulfonate (LAS) or SDS on ice for 1 hour. In addition, the compatibility of W-[…] with a commercial detergent (LG Household & Health Care, Korea; containing subtilisin Carlsberg) was analyzed using skim milk at temperatures of 10° C. or and 30° C.

W-Pro21717 [2] = assay: Reactions of W-Pro21717 with various protease inhibitors; format: biochemical, Pseudoalteromonas arctica PAMC 21717; settings: for Residual activity (%): residual activity of W-Pro21717, inhibitor 1 mM
Procedure: The reaction solution was centrifuged, and then filtered through a filter having a pore size of 0.45 μm, and the filtrate was mixed and reacted with Folin & Ciocalteu's phenol solution and 500 mM sodium carbonate solution at 37° C. for 30 minutes. Next, the enzymatic activity of the reaction product was measured at 660 nm based on an L-tyrosine standard curve, and an amino acid production of 1 nmole/min/mg at 25° C. was defined as the activity of 1 unit of protease.
The kind of W-Pro21717 was analyzed by reactions with various protease inhibitors.

[3] = Substrate specificity of W-Pro21717 with synthetic peptides (p-nitroanilides, 410 nm); format: biochemical; settings: 25° C., 10 minutes
Procedure: (§1) The substrate specificity of W-Pro21717 was analyzed using 5 mM of each of the following 7 different synthetic peptides: N-succinyl-Ala-Ala-Val-p-nitroanilide (AAV), N-succinyl-Ala-Ala-Pro-Leu-p-nitroanilide (AAPL), N-succinyl-Ala-Ala-Ala-p-nitroanilide (AAA), N-succinyl-Gly-Gly-Phe-p-nitroanilide (GGF), N-succinyl-Thr-Leu-Val-p-nitroanilide (TLV), N-succinyl-Ala-Ala-Pro-Phe-p-nitroanilide (AAPF), and N-succinyl-Ala-Ala-Val-Ala-p-nitroanilide (AAVA). W-Pro21717 was allowed to react with a standard buffer containing 0.83 mM substrate at 25° C. for 10 minutes, and then the relative activity thereof was measured at 410 nm.

[4] = system: complex substrates including collagen and keratin; assay: Substrate specificity of R-Pro21717, macro molecule substrates; format: biochemical
azocasein [5] = assay: Stability of R-Pro21717 against temperature and pH; format: physicochemical; settings: 1 hour at varying temperatures, then azocasein 30° C. 30 minutes
Procedure: (§2) In order to determine a temperature optimal for the activity of the protease, R-Pro21717 was allowed to react at varying temperatures of 0˜70° C., and then analyzed. The stability of R-Pro21717 against temperature was analyzed by allowing R-Pro21717 at varying temperatures of 0˜70° C. for 1 hour, and then allowing R-Pro21717 to react a 0.65% azocasein-containing standard buffer at 30° C. for 30 minutes. As a control enzyme, Carlsberg subtilisin was used.
(§3) In order to determine a pH optimal for the activity of the protease, R-Pro21717-containing buffers having varying pHs were allowed to react at 30° C., and then analyzed. The stability of R-Pro21717 against pH was analyzed by allowing R-Pro21717-containing buffers having varying pHs to react on ice for 1 hour, and then reacting R-Pro21717 in 0.65% azocasein-containing standard buffer at 30° C. for 30 minutes. Carlsberg subtilisin was used as a control enzyme and analyzed at a reaction temperature of 40° C.

[6] = Stability of W-Pro21717 as a function of temperature and pH; format: physicochemical; settings: after a reaction at 40° C. for 1 hour
[7] = Substrate specificity of R-Pro21717, synthetic peptide (oligo molecule) substrates; format: biochemical
Procedure: as §1
In this Example, the activity of the R-Pro21717 protease in the presence of synthetic peptide substrates was analyzed.

[8] = Activity of W-Pro21717 as a function of temperature and pH; format: biochemical; settings: range 0 to 60° C. tested
Procedure: A temperature optimal for the activity of W-Pro21717 was analyzed in the temperature range of 0 to 60° C., and the optimum pH was analyzed by 1-hour reactions in 50 mM sodium acetate (pH 2.0-6.0), 50 mM potassium phosphate (pH 7.0-10.0) and 50 mM sodium tetraborate (pH 10.0). As a control, 3 μg of the commercial protease Carlsberg subtilisin was used.

azocasein [9] = assay: Activity of R-Pro21717 as a function of temperature and pH; format: biochemical
Procedure: as §2, §3

For [Ba+2].[Cl-].[Cl-] [Ba^2+, BaCl2], the “influence on the activity of W-Pro21717” value (W-Pro21717 [1]) was “did not influence”.

In the case of [Ca+2].[Cl-].[Cl-] [Ca^2+, CaCl2], the “influence on the activity of W-Pro21717” value (W-Pro21717 [1]) is reported as “did not influence”.

With O=S(=O)([O-])[O-].[Cu+2] [CuSO4] the “increase of the activity of W-Pro21717” value (W-Pro21717 [1]) was “about 60%”.

With O=C(O)CN(CCN(CC(=O)O)CC(=O)O)CC(=O)O [EDTA] the “effect of inhibitor on the activity of W-Pro21717” value (from here on “effect of inhibitor”) (W-Pro21717 [2]) was “slightly inhibited” and the “Residual activity (%)” value (W-Pro21717 [2]) was 75 ± 9%.

For O=P([O-])([O-])[O-].[Fe+3] [Fe^2+, FePO4], the “influence on the activity of W-Pro21717” value (W-Pro21717 [1]) was “did not influence”.

With [Cl][Hg][Cl] [HgCl2] the “effect of inhibitor” value (W-Pro21717 [2]) was “inhibited” and the “Residual activity (%)” value (W-Pro21717 [2]) was 23 ± 8%.

For NC(=O)CI [Iodoacetamide], the “Residual activity (%)” value (W-Pro21717 [2]) was 94 ± 3%.

In the case of [Cl-].[K+] [K^+, KCl], the “influence on the activity of W-Pro21717” value (W-Pro21717 [1]) is reported as “did not influence”.

For CC(=O)N[C@@H](CC(C)C)C(=O)N[C@@H](CC(C)C)C(=O)N[C@H](C=O)CCCNC(=N)N [Leupeptin], the “Residual activity (%)” value (W-Pro21717 [2]) was 98 ± 2%.

With O=S(=O)([O-])[O-].[Mg+2] [Me, MgSO4] the “influence on the activity of W-Pro21717” value (W-Pro21717 [1]) was “did not influence”.

For CCN1C(=O)C=CC1=O [N-Ethylmaleimide], the “Residual activity (%)” value (W-Pro21717 [2]) was 107 ± 8%.

In the case of Cc1ccc(S(=O)(=O)N[C@@H](CCCCN)C(=O)CCl)cc1 [N^a-p-tosyp-L-lysine chloromethyl ketone], the “Residual activity (%)” value (W-Pro21717 [2]) is reported as 137 ± 13%.

In the case of O=S(=O)([O-])[O-].[Na+].[Na+] [Na2SO4], the “stability of W-Pro21717 in the presence of standard detergent components” value (W-Pro21717 [1]) is reported as “sufficient stability”.

For [Cl-].[Na+] [Na^2+, NaCl], the “influence on the activity of W-Pro21717” value (W-Pro21717 [1]) was “did not influence”.

For O=S(=O)(F)Cc1ccccc1 [PMSF], the “effect of inhibitor” value (W-Pro21717 [2]) was “inhibited” and the “Residual activity (%)” value (W-Pro21717 [2]) was 40 ± 8%.

With O=S(=O)([O-])[O-].[Zn+2] [Zn^2+, ZnSO4] the “influence on the activity of W-Pro21717” value (W-Pro21717 [1]) was “did not influence”.

With APMA the “Residual activity (%)” value (W-Pro21717 [2]) was 131 ± 2%.

For “sodium linear alkylbenzene sulfonate [LAS]”, the “stability of W-Pro21717 in the presence of standard detergent components” value (W-Pro21717 [1]) was “sufficient stability”.

B1: Subtilisin Carlsberg: commercial protease used as control enzyme (protein, UniProt P00780 106-379, looked up)
Subtilisin Carlsberg: AQTVPYGIPLIKADKVQAQGFKGANVKVAVLDTGIQASHPDLNVVGGASFVAGEAYNTDGNGHGTHVAGTVAALDNTTGVLGVAPSVSLYAVKVLNSSGSGSYSGIVSGIEWATTNGMDVINMSLGGASGSTAMKQAVDNAYAKGVVVVAAAGNSGSSGNTNTIGYPAKYDSVIAVGAVDSNSNRASFSSVGAELEVMAPGAGVYSTYPTNTYATLNGTSMASPHVAGAAALILSKHPNLSASQVRNRLSSTATYLGSSFYYGKGLINVEAAAQ
With B1 the “Relative activity (%)” value ([3]; substrate AAA) was 1.5 ± 0.5%, the “Relative activity (%)” value ([3]; substrate AAPF) was 100% and the “Relative activity (%)” value ([3]; substrate AAPL) was 66.5 ± 0.1%. The “Relative activity (%)” value ([3]; substrate AAPL, listed as subtilisin Carlsberg) was 68.3%, the “Relative activity (%)” value ([3]; substrate AAV) was 2.6 ± 1.3% and the “Relative activity (%)” value ([3]; substrate AAVA) was 11.7 ± 2.3%. The “Relative activity (%)” value ([3]; substrate GGF) was 0%, the “Relative activity (%)” value ([3]; substrate TLV) was 4.0 ± 3.7% and the “Relative activity (%)” value ([4]; substrate Azocasein) was 100%. For the same molecule, the “Relative activity (%)” value ([4]; substrate Collagen) was 6.7 ± 1.2%, the “Relative activity (%)” value ([4]; substrate Keratin) was 30.2 ± 5.6% and the “Relative activity (%)” value ([4]; substrate Skim milk) was 67.7 ± 5.7%. For the same molecule, the “temperature at which stability / enzymatic activity decreases” value (azocasein [5]) was no less than 50 °C, the decrease in activity [6] was 80% and the “Relative activity (%)” value ([7]; substrate AAA) was 10.2 ± 1.9%. For the same molecule, the “Relative activity (%)” value ([7]; substrate AAPF) was 100%, the “Relative activity (%)” value ([7]; substrate AAPL) was 57.1 ± 10.1% and the “Relative activity (%)” value ([7]; substrate AAV) was 7.9 ± 3.9%. For the same molecule, the “Relative activity (%)” value ([7]; substrate AAVA) was 12.9 ± 0.6%, the “Relative activity (%)” value ([7]; substrate GGF) was 16.2 ± 2.1% and the “Relative activity (%)” value ([7]; substrate TLV) was 11.9 ± 1.1%. For the same molecule, the “temperature optimal for the activity” value [8] was 60 °C, the “temperature optimal for the activity” value (azocasein [9]; 0˜70° C. tested) was 60 °C and the “proteolytic activity at low temperature compared to 60° C.” value (azocasein [9]; printed 'at or') was “did not show proteolytic activity”. For the same molecule, the “pH optimum and pH stability compared with R-Pro21717” value (azocasein [9]; reaction temperature 40° C.) was “the same results as those of R-Pro21717”.
